# In publication PMC10511116:
# Target: ErbB2 (HER2), recombinant (human) (UniProt P04626)
# Test: ELONA
# Settings: every T is Nap-dU (5-[N-(1-naphthylmethyl)carboxamide]-2'-deoxyuridine, printed P); ELONA: ErbB2-coated plate, biotin-aptamer 1 h at room temp, wash 10 mM PBS, 0.05% Tween-20, pH 7.4 (binding buffer not stated); cells: DPBS, 4.5 g/L glucose …
sequence,measurement,value
ATGTTAGAGTTTGCCTGAGTGCCTCGCAAGGGCGTAACAA [ErbB2 aptamer],Kd,1.37 nM
